These results are taken from patent US20250075006A1 (SHANDONG SIMCERE BIOPHARMACEUTICAL, published 2025).

Read-outs that look alike come from different tables or passages of the source.

Assay [1] addresses T1, Cyno GUCY2C ECD (his-tagged cynomolgus monkey GUCY2C protein extracellular domain fusion protein) (cynomolgus monkey, UniProt P25092 24-430 (human entry)).
T1 construct: also called monkey GUCY2C-his; monkey GUCY2C-His
T1 chain: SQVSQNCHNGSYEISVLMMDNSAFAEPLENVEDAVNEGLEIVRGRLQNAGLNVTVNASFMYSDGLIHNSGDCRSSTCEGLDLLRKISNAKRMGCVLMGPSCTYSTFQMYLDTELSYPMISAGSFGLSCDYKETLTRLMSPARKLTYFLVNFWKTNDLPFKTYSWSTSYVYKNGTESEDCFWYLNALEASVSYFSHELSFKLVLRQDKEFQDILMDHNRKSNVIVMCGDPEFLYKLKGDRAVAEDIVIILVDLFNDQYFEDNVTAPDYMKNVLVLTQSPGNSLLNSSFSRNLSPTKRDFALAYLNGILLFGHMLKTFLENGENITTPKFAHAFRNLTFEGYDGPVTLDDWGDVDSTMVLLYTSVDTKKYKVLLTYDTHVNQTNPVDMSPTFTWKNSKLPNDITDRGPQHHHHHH
The assay is described as follows: ELISA, plate coated with monkey GUCY2C-his, OD450. In general terms: An ELISA detects its analyte on a solid surface through an enzyme-linked reagent.

For assay [2], the target named is T2, Human GUCY2C ECD (his-tagged human GUCY2C protein extracellular domain fusion protein) (human, UniProt P25092 24-430).
T2 construct: also called human GUCY2C-his; human GUCY2C-His
The assay is described as follows: ELISA, plate coated with human GUCY2C-his, OD450. On the procedure:
(§1) To assay the binding activity of the humanized antibodies to human GUCY2C-his protein, a human GUCY2C-his protein was diluted with PBS to a final concentration of 2 μg/mL and then added to a 96-well ELISA plate at 50 μL/well. The plate was sealed with a plastic film and incubated at 4° C. overnight. The next day, the plate was washed 2 times with PBST, and a blocking buffer [PBS+2% (w/w) BSA] was added for blocking at room temperature for 2 h. The blocking buffer was discarded, and the plate was washed 2 times with PBST. An antibody to be tested or a control antibody diluted in a 1:3 gradient from a starting concentration of 100 nM was added at 50 μL/well. After incubation at 37° C. for 1 h, the plate was washed 3 times with PBST. A horseradish peroxidase (HRP)—labeled secondary antibody (purchased from Merck, Cat. No. AP113P) was added for incubation at 37° C. for 1 h, and the plate was washed 5 times with PBST. A TMB substrate was added at 50 µL/well for incubation at room temperature for 5-10 min, and then a stop solution (1.0 M HCl) was added at 50 μL/well. OD450 nm values were read using an ELISA plate reader (Multimode Plate Reader, EnSight, purchased from Perkin Elmer).

In assay [3] the target is T2, Human GUCY2C ECD (his-tagged human …). As to the kind of experiment: SPR Biacore, antibody on Protein A, antigen injected. On the procedure:
The strength of antibody-antigen binding was assayed with a BIAcore 8K instrument using a Protein A capture method. First, Protein A was immobilized onto a CM4 chip (purchased from GE, BR-1005-34) using an amino coupling method. According to the instruction of the Amine Coupling Kit (purchased from GE, BR100633), NHS and EDC were mixed with HBS-EP+pH 7.4 as a mobile phase to activate the chip for about 600 s; the Protein A was diluted to 50 μg/mL with 10 mM sodium acetate (pH 4.5) and injected for 600 s, and finally, the remaining activated sites were blocked with ethanolamine. Then, the affinity of the antibody for the antigen was assayed using a multi-cycle kinetic method; in each cycle, first, the antibody to be tested was captured using the Protein A chip, and then a single concentration of antigen protein was injected. The association and dissociation processes of the antibody with the antigen protein were recorded, and finally, the chip was regenerated using Glycine pH 1.5, wherein the mobile phase was HBS-EP+(10 mM HEPES, 150 mM NaCl, 3 mM EDTA, 0.05% surfactant P20), the flow rate was 30 μL/min, the regeneration time was 30 s, and the assay temperature was 25° C. Finally, according to a 1:1 binding model, the data were analyzed, and the antibody-antigen binding kinetics parameters, including the association rate constant Ka, the dissociation rate constant Kd, the equilibrium dissociation constant KD, and the maximum binding signal Rmax, were fitted.
The association rate (Ka), dissociation rate (Kd), and binding affinity (KD) of the recombinant antibodies Lab306-huFc, Lab322-huFc, and Lab323-huFc with the human GUCY2C protein are shown in Table 5. The positive control antibody has good binding activity at the protein level, but has very weak binding at the cellular level. Lab322-huFc and Lab323-huFc, although weak in affinity, bind well to the cellular level, presumably due to differences in the conformation of the proteins and proteins at the viable cellular level.
A general note: Surface plasmon resonance follows binding to a sensor surface in real time, without labels.

Assay [4] concerns the target T1, Cyno GUCY2C ECD (his-tagged cynomolgus …). The assay is described as follows: ELISA, plate coated with monkey GUCY2C-his, OD450. How it is done: A human GUCY2C-his protein was diluted with PBS to a final concentration of 2 μg/mL and then added to a 96-well ELISA plate at 50 μL/well. The plate was sealed with a plastic film and incubated at 4° C. overnight. The next day, the plate was washed 2 times with PBST, and a blocking buffer [PBS+2% (w/w) BSA] was added for blocking at room temperature for 2 h. The blocking buffer was discarded, and the recombinant antibody and positive and negative control antibody with a starting concentration of 100 nM serially diluted by 3 folds were added at 50 μL/well. After incubation at 37° C. for 1 h, the plate was washed 3 times with PBST. A horseradish peroxidase (HRP)—labeled secondary antibody (purchased from Merck, Cat. No. AP113P) was added for incubation at 37° C. for 1 h, and the plate was washed 5 times with PBST. A TMB substrate was added at 50 μL/well for incubation at room temperature for 10 min, and then a stop solution (1.0 M HCl) was added at 50 μL/well. The OD450 nm values were read by an ELISA plate reader (Multimode Plate Reader, EnSight, purchased from Perkin Elmer).
The monkey GUCY2C-his and murine GUCY2C-his proteins were subjected to ELISA and data analysis according to the method described in Example 4.2. The recombinant antibodies Lab306-huFc, Lab322-huFc, and Lab323-huFc have a relatively good binding activity with the monkey GUCY2C-his protein. […]

Assay [5] concerns the target T2, Human GUCY2C ECD (his-tagged human …). As to the kind of experiment: ELISA, plate coated with human GUCY2C-his, OD450. On the procedure: as §1
The source holds these as a separate data set.

T2 sequence (P25092 other isoform, or with tags, fused parts or gaps): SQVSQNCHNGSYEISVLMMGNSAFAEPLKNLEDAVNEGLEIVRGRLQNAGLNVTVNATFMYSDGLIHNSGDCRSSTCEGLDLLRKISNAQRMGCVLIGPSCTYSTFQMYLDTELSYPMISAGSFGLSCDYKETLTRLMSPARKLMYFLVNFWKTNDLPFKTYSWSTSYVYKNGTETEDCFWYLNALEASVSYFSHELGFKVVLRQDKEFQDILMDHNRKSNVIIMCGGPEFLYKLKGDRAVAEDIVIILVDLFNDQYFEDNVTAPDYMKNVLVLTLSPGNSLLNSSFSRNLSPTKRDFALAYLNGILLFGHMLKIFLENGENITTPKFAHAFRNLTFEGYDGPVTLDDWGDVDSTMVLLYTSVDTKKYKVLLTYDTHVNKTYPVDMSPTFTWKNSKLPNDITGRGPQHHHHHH

B1: 5F9-hIgG1 (antibody, V domains shown)
VH: QVQLQQWGAGLLKPSETLSLTCAVFGGSFSGYYWSWIRQPPGKGLEWIGEINHRGNTNDNPSLKSRVTISVDTSKNQFALKLSSVTAADTAVYYCARERGYTYGNFDHWGQGTLVTVSS
VL: EIVMTQSPATLSVSPGERATLSCRASQSVSRNLAWYQQKPGQAPRLLIYGASTRATGIPARFSGSGSGTEFTLTIGSLQSEDFAVYYCQQYKTWPRTFGQGTNVEIKR
notes: also called positive control antibody
Broadly, the EC50 (read off the curve) is the concentration giving half of the maximal effect. Broadly, the Kd is the equilibrium constant for the complex coming apart. In general, koff refers to a measure of how fast the partners let go of each other. A word on the kon: it is the second-order rate constant of association. Consider B1, for which the “EC50 (read off the curve)” value in assay [1] is about 0.03 nM; in assay [2], about 0.04 nM; in assay [4], about 0.08 nM; in assay [5], about 0.04 nM. This molecule also registered a Kd in assay [3] of 2.19 nM. This molecule also gave an off-rate (koff) in assay [3] of 0.00028 s⁻¹. This molecule showed a kon in assay [3] of 128000 M⁻¹ s⁻¹.

B2: PF1608-hIgG1 (antibody, V domains shown)
VH: EVQLVESGGGLVQPGGSLRLSCAASGFTFSSYWMHWVRQAPGKGLEWIGEIKPSNELTNVHEKFKDRFTISVDKAKNSAYLQMNSLRAEDTAVYYCTRTITTTEGYWFFDVWGQGTLVTVSS
VL: DIQLTQSPSSLSASVGDRVTITCRASESVDYYGSSLLQWYQQKPGKAPKLLIYAASKLASGVPSRFSGSGSGTDFTLTISSLQPEDFATYYCQQTRKAYTFGQGTKLEIKR
notes: also called PF1608-hlgG1; positive control antibody
With B2, the “EC50 (read off the curve)” value in assay [1] was about 0.05 nM; in assay [2] it was about 0.05 nM; in assay [4], about 0.08 nM; in assay [5], about 0.05 nM. In assay [3], this molecule returned a Kd of 1.61 nM. In assay [3], this molecule had an off-rate (koff) of 0.000235 s⁻¹. The molecule further came in with a kon in assay [3] of 146000 M⁻¹ s⁻¹.
